In patent US20200325208A1 (IMMUNOWAKE, published 2020):
Like-named read-outs stand apart in the source and are kept apart here.

B1: Human VEGF121/VEGF-A protein (human VEGF 121 isoform) with 6-His tag (ligand)
chain: APMAEGGGQNHHEVVKFMDVYQRSYCHPIETLVDIFQEYPDEIEYIFKPSCVPLMRCGGCCNDEGLECVPTEESNITMQIMRIKPHQGQHIGEMSFLQHNKCECRPKKDRARQEKCDKPRR
notes: range 27-147; Bought from Sino Biological; captured on the ELISA plate through an anti-His-tag antibody; not shown: 6-His tag
B2: Ixekizumab (e.g., Taltz®) (antibody, human IgG4 S228P, kappa, V domains shown)
VH: QVQLVQSGAEVKKPGSSVKVSCKASGYSFTDYHIHWVRQAPGQGLEWMGVINPMYGTTDYNQRFKGRVTITADESTSTAYMELSSLRSEDTAVYYCARYDYFTGTGVYWGQGTLVTVSS
VL: DIVMTQTPLSLSVTPGQPASISCRSSRSLVHSRGNTYLHWYLQKPGQSPQLLIYKVSNRFIGVPDRFSGSGSGTDFTLKISRVEAEDVGVYYCSQSTHLPFTFGQGTKLEIKR
notes: Parental full-length IgG4 antibody; also called anti-IL-17A antibody
B3: aPD-L1/LC-GS6-VEGFR-mIgG1 (other)
heavy: EVQLVESGGGLVQPGGSLRLSCAASGFTFSRYWMSWVRQAPGKGLEWVANIKQDGSEKYYVDSVKGRFTISRDNAKNSLYLQMNSLRAEDTAVYYCAREGGWFGELAFDYWGQGTLVTVSSASTKGPSVFPLAPSSKSTSGGTAALGCLVKDYFPEPVTVSWNSGALTSGVHTFPAVLQSSGLYSLSSVVTVPSSSLGTQTYICNVNHKPSNTKVDKRVEPKSCDKTHTCPPCPAPEFEGGPSVFLFPPKPKDTLMISRTPEVTCVVVDVSHEDPEVKFNWYVDGVEVHNAKTKPREEQYNSTYRVVSVLTVLHQDWLNGKEYKCKVSNKALPASIEKTISKAKGQPREPQVYTLPPSRDELTKNQVSLTCLVKGFYPSDIAVEWESNGQPENNYKTTPPVLDSDGSFFLYSKLTVDKSRWQQGNVFSCSVMHEALHNHYTQKSLSLSPGK
light: EIVLTQSPGTLSLSPGERATLSCRASQRVSSSYLAWYQQKPGQAPRLLIYDASSRATGIPDRFSGSGSGTDFTLTISRLEPEDFAVYYCQQYGSLPWTFGQGTKVEIKRTVAAPSVFIFPPSDEQLKSGTASVVCLLNNFYPREAKVQWKVDNALQSGNSQESVTEQDSKDSTYSLSSTLTLSKADYEKHKVYACEVTHQGLSSPVTKSFNRGECTGGGGSGGGGSGGGGSGGGGSGGGGSGGGGSTGSDTGRPFVEMYSEIPEIIHMTEGRELVIPCRVTSPNITVTLKKFPLDTLIPDGKRIIWDSRKGFIISNATYKEIGLLTCEATVNGHLYKTNYLTHRQTNTIIDVVLSPSHGIELSVGEKLVLNCTARTELNVGIDFNWEYPSSKHQHKKLVLSPVNRDLKTQSGSEMKKFLSTLTIDGVTRSDQGLYTCAASSGLMTKKNSTFVRVHEK
notes: Durvalumab (Fc-mutated IgG1) with Flt1d2-Flk1d3 fused to the C-terminus of the light chains through the GS6 linker; Expressed in CHO cells
B4: Durvalumab (e.g., IMFINZI™) (antibody, human IgG1, kappa, V domains shown)
VH: EVQLVESGGGLVQPGGSLRLSCAASGFTFSRYWMSWVRQAPGKGLEWVANIKQDGSEKYYVDSVKGRFTISRDNAKNSLYLQMNSLRAEDTAVYYCAREGGWFGELAFDYWGQGTLVTVSS
VL: EIVLTQSPGTLSLSPGERATLSCRASQRVSSSYLAWYQQKPGQAPRLLIYDASSRATGIPDRFSGSGSGTDFTLTISRLEPEDFAVYYCQQYGSLPWTFGQGTKVEIKR
notes: Parental full-length IgG1 kappa; also called MEDI4736; anti-PD-L1 antibody
B5: Pembrolizumab (e.g., Keytruda®) (antibody, human IgG4 S228P, kappa, V domains shown)
VH: QVQLVQSGVEVKKPGASVKVSCKASGYTFTNYYMYWVRQAPGQGLEWMGGINPSNGGTNFNEKFKNRVTLTTDSSTTTAYMELKSLQFDDTAVYYCARRDYRFDMGFDYWGQGTTVTVSS
VL: EIVLTQSPATLSLSPGERATLSCRASKGVSTSGYSYLHWYQQKPGQAPRLLIYLASYLESGVPARFSGSGSGTDFTLTISSLEPEDFAVYYCQHSRDLPLTFGGGTKVEIKR
notes: Parental full-length IgG4 antibody, used as the positive anti-PD-1 control; also called anti-PD-1 antibody
B6: Nivolumab (e.g., Opdivo®) (antibody, human IgG4 S228P, kappa, V domains shown)
VH: QVQLVESGGGVVQPGRSLRLDCKASGITFSNSGMHWVRQAPGKGLEWVAVIWYDGSKRYYADSVKGRFTISRDNSKNTLFLQMNSLRAEDTAVYYCATNDDYWGQGTLVTVSS
VL: EIVLTQSPATLSLSPGERATLSCRASQSVSSYLAWYQQKPGQAPRLLIYDASNRATGIPARFSGSGSGTDFTLTISSLEPEDFAVYYCQQSSNWPRTFGQGTKVEIKR
notes: Parental full-length IgG4 antibody; also called anti-PD-1 antibody

How the values were obtained:
[1] = target: TNFα/LC-GS6-VEGFR-IgG1 (Homo sapiens (Human), UniProt P0DOX5 2-449 = IgG part); test: ELISA
[2] = target: T1, tPD-L1/LC-GS6-VEGFR-nIgG1 (Homo sapiens (Human), UniProt P0DOX5 2-449 = IgG part); test: ELISA
T1 construct: Atezolizumab (de-glycosylated IgG1) with Flt1d2-Flk1d3 fused to the C-terminus of the light chains through the GS6 linker; Expressed in CHO cells

[3] = target: T2, EGFR/LC-GS6-VEGFR-IgG1; test: ELISA
T2 construct: Cetuximab IgG1 with Flt1d2-Flk1d3 fused to the C-terminus of the light chains through the GS6 linker; Expressed in CHO cells

[4] = target: T3, Human PD-1 protein (human, UniProt Q15116 25-167, limits assumed); test: ELISA, antigen captured by anti-His antibody on plate, HRP anti-IgG Fc detection
T3 construct: Purchased
Procedure: (§1) 96-well ELISA plates were coated with 100 μl His-tag antibody (capture antibody, 0.4 μg/ml) at room temperature (RT) overnight. The coated plates were washed with washing buffer (pH 7.4 PBS with 0.1% Tween 20) three times, and blocked with 3% BSA in washing buffer for 2 hours, at RT. […] After washing three times, VEGFR-antibody light chain fusion proteins of various concentrations in washing buffer containing 3% BSA were added to the coated plates, and let incubation for 2 hours at RT. Aflibercept (VEGFR-Fc fusion protein) and the corresponding parental full-length antibody were included as positive controls. […] After washing three times, HRP conjugated anti-gG Fc antibody (secondary antibody) was added (1:6000 dilution with 3% BSA in washing buffer), and incubated for 2 hours at RT. After washing four times, 100 μl HRP substrate was added to each well. After developing for 20 minutes, stop buffer was added to each well. Optical density (OD) of each well was measured immediately using a microplate reader at 450 nm. EC₅, was calculated if OD>2.0; otherwise, EC₅₀ was not calculated.

[5] = target: B1; test: as above
Procedure: as §1

[6] = target: T4, Human IL-17A protein (human, UniProt Q16552 24-155); test: as above
T4 construct: Purchased
Procedure: as §1

[7] = target: B1; test: as above; remark: listed apart in the source
Procedure: as §1

T4 sequence (Q16552 24-155 limits assumed): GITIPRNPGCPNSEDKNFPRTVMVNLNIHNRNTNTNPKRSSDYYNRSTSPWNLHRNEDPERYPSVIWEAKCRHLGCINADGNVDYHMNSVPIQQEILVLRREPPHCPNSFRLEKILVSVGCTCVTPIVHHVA
T3 sequence (Q15116 25-167 limits assumed): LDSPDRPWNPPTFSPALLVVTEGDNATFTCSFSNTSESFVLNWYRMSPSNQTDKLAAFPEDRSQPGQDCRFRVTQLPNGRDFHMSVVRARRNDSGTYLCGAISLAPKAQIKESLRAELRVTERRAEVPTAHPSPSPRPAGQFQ

## B1
[1]
  binding result: binds
[2]
  binding result: binds
[3]
  binding result: binds

## B2
[4]
  binding result: no binding
[5]
  binding result: no binding
[6]
  EC50: 1.1 nM

## B3
[7]
  EC50: 34.5 nM

## B4
[7]
  binding result: no binding

## B5
[5]
  binding result: no binding
[6]
  binding result: no binding

## B6
[5]
  binding result: no binding
[6]
  binding result: no binding
